Experimental data: article PMC5381662 (Cell reports, 2016)
Like-named read-outs stand apart in the source and are kept apart here. Each block holds one binder with its values, some of them ahead of it.

How the values were obtained:
Assay in all cases: pull-down
[1] = biological target: T1, Strep II-tagged UAF1 (UniProt Q8TAF3 1-677)
[2] = biological target: Strep II-tagged UAF1 K595E/H599A double mutant (UniProt Q8TAF3 1-677, K595E | H599A)
[3] = biological target: Strep II-tagged UAF1 K459E (UniProt Q8TAF3 1-677, K459E)
Strep II-tagged UAF1 K459E, sequence (Q8TAF3 whole entry K459E): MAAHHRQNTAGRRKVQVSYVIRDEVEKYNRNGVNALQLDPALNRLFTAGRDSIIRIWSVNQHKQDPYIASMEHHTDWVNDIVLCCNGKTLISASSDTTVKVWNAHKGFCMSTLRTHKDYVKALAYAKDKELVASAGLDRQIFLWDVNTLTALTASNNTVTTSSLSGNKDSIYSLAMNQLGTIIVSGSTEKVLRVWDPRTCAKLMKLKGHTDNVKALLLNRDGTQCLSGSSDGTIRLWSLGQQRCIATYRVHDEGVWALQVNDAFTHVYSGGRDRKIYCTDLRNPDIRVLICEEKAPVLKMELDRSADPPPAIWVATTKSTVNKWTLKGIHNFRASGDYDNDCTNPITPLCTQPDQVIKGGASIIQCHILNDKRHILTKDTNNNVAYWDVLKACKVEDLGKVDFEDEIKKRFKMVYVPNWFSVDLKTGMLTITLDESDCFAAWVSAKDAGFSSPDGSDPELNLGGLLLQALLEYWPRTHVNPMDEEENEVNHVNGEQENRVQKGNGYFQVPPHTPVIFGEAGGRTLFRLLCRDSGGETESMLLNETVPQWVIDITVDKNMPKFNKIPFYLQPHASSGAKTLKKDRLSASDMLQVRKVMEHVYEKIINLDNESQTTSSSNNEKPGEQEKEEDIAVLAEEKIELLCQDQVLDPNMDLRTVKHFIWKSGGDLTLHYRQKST

[4] = biological target: Strep II-tagged UAF1 K595E (UniProt Q8TAF3 1-677, K595E)
Strep II-tagged UAF1 K595E, sequence (Q8TAF3 whole entry K595E): as the sequence (Q8TAF3 whole entry K459E) above, with E459K, K595E counted along it

[5] = biological target: Strep II-tagged UAF1 H599A (UniProt Q8TAF3 1-677, H599A)
Strep II-tagged UAF1 H599A, sequence (Q8TAF3 whole entry H599A): as the sequence (Q8TAF3 whole entry K459E) above, with E459K, H599A counted along it

[6] = biological target: T1, Strep II-tagged UAF1; remark: listed apart in the source
[7] = biological target: T2, RAD51 (UniProt Q06609 1-339)
T2 sequence (looked up): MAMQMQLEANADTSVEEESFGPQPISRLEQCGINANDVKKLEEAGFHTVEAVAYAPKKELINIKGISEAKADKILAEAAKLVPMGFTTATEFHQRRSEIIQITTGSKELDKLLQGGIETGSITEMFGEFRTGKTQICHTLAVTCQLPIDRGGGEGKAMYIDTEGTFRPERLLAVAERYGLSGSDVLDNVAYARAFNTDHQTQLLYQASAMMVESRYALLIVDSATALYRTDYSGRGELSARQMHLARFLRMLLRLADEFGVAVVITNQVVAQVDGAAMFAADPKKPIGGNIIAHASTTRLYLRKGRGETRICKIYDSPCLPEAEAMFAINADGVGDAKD

[8] = biological target: T1, Strep II-tagged UAF1; remark: listed apart in the source

T1 sequence (Q8TAF3 whole entry): as the sequence (Q8TAF3 whole entry K459E) above, with E459K counted along it
Strep II-tagged UAF1 K595E/H599A double mutant, sequence (Q8TAF3 whole entry K595E/H599A): as the sequence (Q8TAF3 whole entry K459E) above, with E459K, K595E, H599A counted along it

B1: GST-tagged RAD51AP1 (natural protein, UniProt Q96B01-2 1-335, looked up)
chain: MVRPVRHKKPVNYSQFDHSDSDDDFVSATVPLNKKSRTAPKELKQDKPKPNLNNLRKEEIPVQEKTPKKRMALDDKLYQRDLEVALALSVKELPTVTTNVQNSQDKSIEKHGSSKIETMNKSPHISNCSVASDYLDLDKITVEDDVGGVQGKRKAASKAAAQQRKILLEGSDGDSANDTEPDFAPGEDSEDDSDFCESEDNDEDFSMRKSKVKEIKKKEVKVKSPVEKKEKKSKSKCNALVTSVDSAPAAVKSESQSLPKKVSLSSDTTRKPLEIRSPSAESKKPKWVPPAASGGSRSSSSPLVVVSVKSPNQSLRLGLSRLARVKPLHPNATST
binding result [1]: binds
binding result [2]: binds
binding result [3]: binds
binding result [4]: binds
binding result [5]: binds

B4: RAD51AP1 H329A mutant (natural protein, UniProt Q96B01-2 1-335, looked up)
chain: MVRPVRHKKPVNYSQFDHSDSDDDFVSATVPLNKKSRTAPKELKQDKPKPNLNNLRKEEIPVQEKTPKKRMALDDKLYQRDLEVALALSVKELPTVTTNVQNSQDKSIEKHGSSKIETMNKSPHISNCSVASDYLDLDKITVEDDVGGVQGKRKAASKAAAQQRKILLEGSDGDSANDTEPDFAPGEDSEDDSDFCESEDNDEDFSMRKSKVKEIKKKEVKVKSPVEKKEKKSKSKCNALVTSVDSAPAAVKSESQSLPKKVSLSSDTTRKPLEIRSPSAESKKPKWVPPAASGGSRSSSSPLVVVSVKSPNQSLRLGLSRLARVKPLAPNATST
binding result [8]: binds

B5: RAD51AP1 1-145 fragment (domain or fragment, UniProt Q96B01-2 1-145, looked up)
chain: MVRPVRHKKPVNYSQFDHSDSDDDFVSATVPLNKKSRTAPKELKQDKPKPNLNNLRKEEIPVQEKTPKKRMALDDKLYQRDLEVALALSVKELPTVTTNVQNSQDKSIEKHGSSKIETMNKSPHISNCSVASDYLDLDKITVEDD
binding result [8]: binds

B6: RAD51AP1 ΔN25 mutant (domain or fragment, UniProt Q96B01-2 26-335, looked up)
chain: VSATVPLNKKSRTAPKELKQDKPKPNLNNLRKEEIPVQEKTPKKRMALDDKLYQRDLEVALALSVKELPTVTTNVQNSQDKSIEKHGSSKIETMNKSPHISNCSVASDYLDLDKITVEDDVGGVQGKRKAASKAAAQQRKILLEGSDGDSANDTEPDFAPGEDSEDDSDFCESEDNDEDFSMRKSKVKEIKKKEVKVKSPVEKKEKKSKSKCNALVTSVDSAPAAVKSESQSLPKKVSLSSDTTRKPLEIRSPSAESKKPKWVPPAASGGSRSSSSPLVVVSVKSPNQSLRLGLSRLARVKPLHPNATST
binding result [8]: binds

Second part, the binder after the results:

binding result [6]: binds
binding result [7]: binds
B2: RAD51AP1 (no tag named) (natural protein, UniProt Q96B01-2 1-335, looked up)
chain: MVRPVRHKKPVNYSQFDHSDSDDDFVSATVPLNKKSRTAPKELKQDKPKPNLNNLRKEEIPVQEKTPKKRMALDDKLYQRDLEVALALSVKELPTVTTNVQNSQDKSIEKHGSSKIETMNKSPHISNCSVASDYLDLDKITVEDDVGGVQGKRKAASKAAAQQRKILLEGSDGDSANDTEPDFAPGEDSEDDSDFCESEDNDEDFSMRKSKVKEIKKKEVKVKSPVEKKEKKSKSKCNALVTSVDSAPAAVKSESQSLPKKVSLSSDTTRKPLEIRSPSAESKKPKWVPPAASGGSRSSSSPLVVVSVKSPNQSLRLGLSRLARVKPLHPNATST

binding result [8]: binds
B3: RAD51AP1 fragment, amino acid residues 95-187 (domain or fragment, UniProt Q96B01-2 95-187, looked up)
chain: TVTTNVQNSQDKSIEKHGSSKIETMNKSPHISNCSVASDYLDLDKITVEDDVGGVQGKRKAASKAAAQQRKILLEGSDGDSANDTEPDFAPGE
